Assay: soluble on expression in E. coli; label from the status in PepcDB or PDB records

| Sequence | soluble on expression in E. coli |
| --- | --- |
| MLVCDFKTTCLNWVNVDDVVMGGVSNSAMQLTQDGTAVFAGNLSLENSGGFASVRTVLERRNYADFAGFRIRVKGDGKRYSFRARNDERFDGVVYKFDFETVPDEWMEIDLSFAGFIPSFRGRTLVDVPPLDSSNIVQIGLLVSNKQAGAFWLEIAWIEAYRADTVASSFRLEHHHHHH | soluble |
| MLVIKGVKAYTMSNIGVVEKANIIVKDGKIVDVTQELPPLEGKTVVDGEGLIALPGLIDPHTHLGVYSLEWEYGDHGTEKSDPITPHFKVIDGLDIFDPGFKDAIAGGVTTVSVEPGAPLSWASYEKTTIMPGQSAILKTNGRIIKEEAGIKIAVGGHVRKFLEELKLTPTTRMGIFAMIRMILHKAKEYLEKEDKQYDPKLEALATLLKNETVARVHAHLSRDMLSIIRLLKEFDIKNIIIEHGTEAYKISDVLKENGIPVILGPVIFPRRGVELRELSSKLAFQLYNSGMMFALTTDHPALPIQYLTLVAAACVGEGLPYEEALKSITINPAKILGIDRFVGSLEPGKDADIVLFDGDPLNPESKVMYTIIDGEVVYER | soluble |
| MLVNGKWTADWQPVQKADDHGRFVRQVSSFRNWITPDGSAGPTGTGGFAAEAGRYRLYVALICPWASRTLMARRLKGLDGLIPVTVVNPVMGTQGWEFGGHDDAEEDPLFGARHLHEIYTRAEPQFTGRATVPVLWDMKRDAMVNNESADILRMFDTAFEGLAPSDLRLYPAALAGEIDALNAQVYDRLNNGVYKAGFASTQEAYDEAVAGVFEMLDHLEYRLTGDYIFGGALTETDIRIFVTLIRFDAAYHGLFKTNRRQIADYPRLWAYMRRILARPGVRETVNMDHITRGYYSIKALNPSRIRPVGPAHIEAALRETAAGI | not soluble |
| MLYKRKNIKFKNFVDLHKNLSLSKLFDFYSVFEGFEKLNILNFEDDVFTNIERILLDDYLKIKSYFALDETSSYALTLLAKNNRKRFSINRKIQHFKALSTLKYLLETGIIKLEYSKEAKKIKDKRQKIKKELRSYVVQDKIIFSNHFTRFFFYFLKPNEKLILQNRYKEVLECIKEKFELYQSFCFEQLSRELLEKKFNINGVQSYWDKNLELDLYYQDENLCFVGEVKFKNKKICKNILNLLKSKAKSLNLAPNYYIIISKNGFSKEIDKICEQNLLLLDLNDFKILLEELEHHHHHH | not soluble |
| MMAKDFYSAIEDRRSIYAISKEQVVSDEKIQEVIYHAVKHTPSAFNSQSARVVVLLGEQHDKLWDITKETLRKIVPENNFAPTEEKMNAFKSGYGTVLYFEDSEVVESLQANFALYKDNFPTWSQQSSGMLQFAIWTALEIEGFGATLQHYNPLIDEEVRKEWDVPANWKLIAQMPFGKPVVQAGEKEFQPLENRVKIYK | not soluble |
| MMAKLVVCIIDGMADPPPPAGGVTPLAAAHTPHCDTLARHSVAGLCHVIQPEAVPGSEAGLSALLCCEAAASIARGPVEALAQGDPVAPHETVWRLNLVSLGPRGNYYNPAPLLDAATETAARKMLDRALGTQGYSLLGGKGFRHLCAGTEPPVLRDGPQDVCGMTPDTGQADLNSYCPRLARAMTEANVLFRRSRMDLAVWPWGAGTMPDLPGFAETTGQTGALAGGVPLARGLALALGMTAPSIAGATGGIDTDLGAKTRAAIALAAGHDVVYLHVEAPDLHAHALDRVAKRRAIERIDAEVVGPLHMALPDATLLITCDHATDCATGRHMAIPVPFILHKPDGPQDGIATFSEAASARTGIRIDSAATLVRLALADLEHHHHHH | soluble |
| MMARVEKLRELMKENNLQGFLVTSPYNLRYLTNFTGTTGLAMITLDKAFFVTDFRYTEQAAEQATGFTIVKNTGHIFDEVADLAERLQLDNLAFEETQVSFADYSLLEEILPCELVPVMGLIEELREVKDEEEVAIIEKACAIADQGFAFVLEMIKPGMTEIEVANQLDFFMRSKGASGVSFETIVASGLRSAMPHGVASHKVIEKGELITLDFGCYYEGYVSDMTRTFAIGSIQPKLKEIYDIVLEAQLKVLAEAKPGLTGIQLDAIARDHIASYGYGDAFGHSTGHGIGLEIHEGPNVSFRADKQFVPGNVITDEPGIYLPGIGGVRIEDDLLITAEGNRVLTHAPKELIIL | not soluble |
| MMAYSDTTMMSDDIDWLRSHRGVCKVDLYNPEGQQDQDRKVICFVDVSTLNVEDKDYKDAASSSSEGNLNLGSLEEKEIIVIKDTEKKDQSKTEGSVCLFKQAPSDPVSVLNWLLSDLQKYALGFQHALSPSTSTCKHKVGDTEGEYHRASSENCYSVYADQVNIDYLMNRPQNLRLEMTAAKNTNNNQSPSAPPAKPPSTQRAVISPDGECSIDDLSFYVNRLSSLVIQMAHKEIKEKLEGKSKCLHHSICPSPGNKERISPRTPASKIASEMAYEAVELTAAEMRGTGEESREGGQKSFLYSELSNKSKSGDKQMSQRESKEFADSISKGLMVYANQVASDMMVSLMKTLKVHSSGKPIPASVVLKRVLLRHTKEIVSDLIDSCMKNLHNITGVLMTDSDFVSAVKRNLFNQWKQNATDIMEAMLKRLVSALIGEEKETKSQSLSYASLKAGSHDPKCRNQSLEFSTMKAEMKERDKGKMKSDPCKSLTSAEKVGEHILKEGLTIWNQKQGNSCKVATKACSNKDEKGEKINASTDSLAKDLIVSALKLIQYHLTQQTKGKDTCEEDCPGSTMGYMAQSTQYEKCGGGQSAKALSVKQLESHRAPGPSTCQKENQHLDSQKMDMSNIVLMLIQKLLNENPFKCEDPCEGENKCSEPRASKAASMSNRSDKAEEQCQEHQELDCTSGMKQANGQFIDKLVESVMKLCLIMAKYSNDGAALAELEEQAASANKPNFRGTRCIHSGAMPQNYQDSLGHEVIVNNQCSTNSLQKQLQAVLQWIAASQFNVPMLYFMGDKDGQLEKLPQVSAKAAEKGYSVGGLLQEVMKFAKERQPDEAVGKVARKQLLDWLLANL | not soluble |
| MMEDVGKEMSKIIQKRDINERYEELVNEVLKDQDVQAFIQANRERLTDEDIRKSYAKLYEFVQEKKKFQVNDPAMIAPGYEPRLMLNFHYIDVTYVPTADLIARQKEEEIRNRVRAMDMPKDVREANLRDFDPSSQGRAKALAEAMQFLREYPATPKEFHKGLYLQGPFGVGKSFLLGAMANALAERGFTTTIVHFPTFTVEMKQAIGRDQVGEKLDAVKKSPILMIDDIGAESMTSWIRDDVLSVILQYRMQEQLVTFFSSNLDLKALEEHLTVTQRGEQEPLKARRIMERVRYLSKEITMTGNDRRNG | not soluble |
| MMEKNNEVIQTHPLVGWDISTVDSYDALMLRLHYQTPNKSEQEGTEVGQTLWLTTDVARQFISILEAGIAKIESGDFPVNEYRRH | not soluble |
| MMEMITIKPGKITVQANPNMPKEVAELFRKQHYEIVGRHSGVKLCHWLKKSLTEGRFCYKQKFYGIHSHRCLQMTPVLAWCTHNCIFCWRPMENFLGTELPQPWDDPAFIVEESIKAQRKLLIGYKGNPKVDKKKFEEAWNPTHAAISLSGEPMLYPYMGDLVEEFHKRGFTTFIVTNGTIPERLEEMIKEDKLPTQLYVSITAPDIETYNSVNIPMIPDGWERILRFLELMRDLPTRTVVRLTLVKGENMHSPEKYAKLILKARPMFVEAKAYMFVGYSRNRLTINNMPSHQDIREFAEALVKHLPGYHIEDEYEPSRVVLIMRDDVDPQGTGVEGRFIKH | soluble |
| MMEMLVDQGTDASSSASTSTSSVSRFGADTFMNTPDDVMMNDDMEPIPRDRCNTWPMRRPQLEPPLNSSPIIHEQIPEEDADLYGSNEQCGQLGGASSNGSTAMLHTPDGSNSHQTSFPSDFRMSESPDDTVSGKKTTTRRNAWGNMSYAELITTAIMASPEKRLTLAQVYEWMVQNVPYFRDKGDSNSSAGWKNSIRHNLSLHSRFMRIQNEGAGKSSWWVINPDAKPGRNPRRTRERSNTIETTTKAQLEKSRRGAKKRIKERALMGSLHSTLNGNSIAGSIQTISHDLYDDDSMQGAFDNVPSSFRPRTQSNLSIPGSSSRVSPAIGSDIYDDLEFPSWVGESVPAIPSDIVDRTDQMRIDATTHIGGVQIKQESKPIKTEPIAPPPSYHELNSVRGSCAQNPLLRNPIVPSTNFKPMPLPGAYGNYQNGGITPINWLSTSNSSPLPGIQSCGIVAAQHTVASSSALPIDLENLTLPDQPLMDTMDVDALIRHELSQAGGQHIHFDL | not soluble |
| MMFDRRFFALVVLLCVSAVRSTEDASDDELNYEMDEGVVVLTDKNFDAFLKKNPSVLVKFYAPWCGHCKHLAPEYEKASSKVSIPLAKVDATVETELGKRFEIQGYPTLKFWKDGKGPNDYDGGRDEAGIVEWVESRVDPNYKPPPEEVVTLTTENFDDFISNNELVLVEFYAPWCGHCKKLAPEYEKAAQKLKAQGSKVKLGKVDATIEKDLGTKYGVSGYPTMKIIRNGRRFDYNGPREAAGIIKYMTDQSKPAAKKLPKLKDVERFMSKDDVTIIGFFATEDSTAFEAFSDSAEMLREEFKTMGHTSDPAAFKKWDAKPNDIIIFYPSLFHSKFEPKSRTYNKAAATSEDLLAFFREHSAPLVGKMTKKNAATRYTKKPLVVVYYNADFSVQYREGSEYWRSKVLNIAQKYQKDKYKFAVADEEEFAKELEELGLGDSGLEHNVVVFGYDGKKYPMNPDEFDGELDENLEAFMKQISSGKAKAHVKSAPAPKDDKGPVKTVVGSNFDKIVNDESKDVLIEFYAPWCGHCKSFESKYVELAQALKKTQPNVVLAKMDATINDAPSQFAVEGFPTIYFAPAGKKSEPIKYSGNRDLEDLKKFMTKHGVKSFQKKDEL | not soluble |
| MMFWDSEVAKRLLAQGALRPLDVQFARFIGKQAVLAGHNAAESELLSVLSAALSAELGRGHICLPLCDAQGNRCDLAALIGLYGEASLQHSERWLAVDWQALLQASPLVGQQGEAVPLMFDGSRLYLHRYWHYEKQLAARLTELAAPQRLSPAELANLRERLNTLFARDYLGLWQALQQKPLSSVERIQLLNDRLDVVESDALDWPAIEAVVEKAQRAADLQALEQLIPLTHCLNWQKVAAAVALTRRFAVISGGPGTGKTTTVTKLLAALISQSMAQGKVPEIKLIAPTGKAAARLTESMGKAVSQLAIEPEIAAAIPSSSSTIHRLLGAIPGSAEFRHHTRNPLHLDLLVVDEASMVDLPLMVKLVEALPKHARLILLGDKDQLASVEAGAVLGDICTFLNQGYGHEQGAQLAELTGFATLRQTASKTVNPVADCLCMLQKSYRFDARSGIGQLAKAINSGSPARVEAVWQQSFSDIEHFALSGEHYQQLLQTLVQAYRPYLSLLNQPTEQFESTQQSMLTLAKSALDAFSRCRLLCALREGDFGVMGLNTRIERALNAHKLIKTQEEIWYHGRPIMVTRNDHGLGLYNGDIGLCMRDRDDDQGRLKVYFELPDGSIKAVLPSRVPQHETAYAMTIHKSQGSEFDLTLLILPPDYSPILTRELVYTGITRAKKQLKLYCDNKVLQRAIKVKTQRASGLVARLEQ | not soluble |
| MMGDSVIYYVEQADEPVNRADERARKTFKYFWRELFWERRRIISALDFAMVKVPFFQDGEDGEICEHMWIDDIYFDGLYIYGVLNNEPGELTNVEQGESVCVPVDDISDWMFVCNGIPYGGFTIQAMRGQMTEEERTEHDAAWGIDFGDPGQILLVYEEKEHPENLEE | not soluble |
| MMIIGINGSPRKNGNTIEMLKSALDGAKAQGAETELINLYDYNYKGCVSCFSCKLKGGRSYGKCALKDDLKPILEKIEKADAFILASPIYFGMVTGEMRSFMERLLFQYLVYDKDHSSLFNRKIKTGFIYTMNVPETYLDSVGYNKLFESNEATLKRIFGASEYILSTDTYQFDDYSKYEASMFDVEAKKKRREEVFPEDCKRAYEMGASFVKLEHHHHHH | not soluble |
| MMIVIKTAIPDVLILEPKVFGDERGFFFESYNQQTFEELIGRKVTFVQDNHSKSKKNVLRGLHFQRGENAQGKLVRCAVGEVFDVAVDIRKESPTFGQWVGVNLSAENKRQLWIPEGFAHGFVTLSEYAEFLYKATNYYSPSSEGSILWNDEAIGIEWPFSQLPELSAKDAAAPLLDQALLTE | soluble |

From the DeepSol protein solubility set
